This passage reports EC50 results from patent US20220195015A1 (published 2022).

B1: C164 (antibody, V domains shown)
VH: EVQLVESGGGLVQPGGSLRLSCAASGFSVSTKYMTWVRQAPGKGLEWVSVLYSGGSDYYADSVKGRFTISRDNSKNALYLQMNSLRVEDTGVYYCARDSSEVRDHPGHPGRSVGAFDIWGQGTMVTVSS
VL: QSALTQPASVSGSPGQSITISCTGTSNDVGSYTLVSWYQQYPGKAPKLLIFEVTKRSSGISNRFSGSKSGNTASLTISGLQGEDEADYYCCSYAGASTFVFGGGTKLTVL
B2: C055 (antibody, V domains shown)
VH: EVQLVESGGGLVQPGGSLRLSCAASGFSVSTKYMTWVRQAPGKGLEWVSVLYSGRTDYYADSVKGRFTISRDSSKNILYLQMSSLRVEDTGFYYCARDSSEVRDHPGHPGRSVGAFDIWSQGTMVTVSS
VL: QSALTQPASVSGSPGQSIAISCTGTSNDVGSYTLVSWYQQYPGKAPKLLIFEDSQRSSGISNRFSGSKSGNTASLTISGLRGEDEADYYCCSYAGSHTFVFGGGTKVTVL
B3: C143 (antibody, V domains shown)
VH: EVQLVESGGGLVQPGGSLRLSCAASGFSVSTKYMTWVRQAPGKGLEWVSVLYSGGSDYYADSVKGRFTISRDNSKNALYLQMNSLRVEDTGVYYCARDSSEVRDHPGHPGRSVGAFDIWGQGTMVTVSS
VL: QSALTQPASVSGSPGQSITISCTGTSNDVGSYTLVSWYQQYPGKAPKLLIFEGTKRSSGISNRFSGSKSGNTASLTISGLQGEDEADYYCCSYAGASTFVFGGGTKLTVL
B4: C058 (antibody, V domains shown)
VH: QVQLVQSGAEVKKPGASVKVSCKASGYIFTDYSMHWVRQAPGQGLEWIGWVNPNSGGTNYAQKFQGWVTMARDTSITTVYMELSRLKSDDTAVYFCARGPLFHRLVYDFWSGYHDGFDMWGQGTMVTVSS
VL: QSALTQPASVSGSPGQSITISCTGTSSDVGGYKFVSWYQQHPGKAPKLMIYEVSNRPSGVSNRFSGSKSGNTASLTISGLQAEDEADYYCNSYTSSSTWVFGGGTKLTVL
B5: C544 (antibody, V domains shown)
VH: QVQLVQSGAEVKKPGASVKVSCKASGYTFSSHDINWVRQATGQGLEWVGWMNPNSGNTGSAQSFQGRVTLTRNASISTAYLELSSLRSEDTAVYFCARGFSLTWYFDLWGRGTLVTVSS
VL: SYELTQPPSVSAAPGKTARITCGGNNIGGKNVHWYQQKPGQAPVLVVFDDSDRPSGIPERFSGSNSGNTATLTISRVEAGDEADYYCQLWDSTSDHPDVVFGGGTQLTVL
B6: C213 (antibody, V domains shown)
VH: EVQLVESGGGLVKPGGSLRLSCAASGFTFSSYSMNWVRQAPGKGLEWVSSISSSSSYIYYADSVKGRFTISRDNAKNSLYLQMNSLRAEDTAVYYCARVQVGARGWVDYWGQGTLVTVSS
VL: NFMLTQPHSVSESPGKTVTISCTRSSGSIASNYVQWYQQRPGSAPTTVIYEDNERPSGVPDRFSGSIDSSSNSASLTISGLKTEDEADYYCQSYDRINWVFGGGTKLTVL
B7: C217 (antibody, V domains shown)
VH: EVQLVESGGGLVKPGGSLRLSCAASGFTFSSYSMNWVRQAPGKGLEWVSFISSRSSYIYYADSVKGRFTISRDNAKNSLYLQMNSLRAEDTAVYYCARVQVGARGWVDYWGQGTLVTVSS
VL: NFMLTQPHSVSESPGKTVTISCTRSSGSIASNYVQWYQQRPGSAPTTVIYEDNQRPSGVPDRFSGSIDSSSNSASLTISGLKTEDEADYYCQSYDSINWVFGGGTKLTVL
B8: C542 (antibody, V domains shown)
VH: EVQLVESGGGLVQPGGSLRLSCAASGLTVTSNYMSWVRQAPGRGLEWVSLIYPGGTTYYADSVKGRFTVSRDNSKNTLYLQMDSLRAEDTGVYYCARETLGRGGDCWGQGTLVTVSS
VL: DIQMTQSPSSLSASVGDRVTITCQASQDISNFLNWYQQKPGKAPKLLIYDASNLETGVPSRFSGSRSGTDFTFTISSLQPDDIATYYCQQYDNLPRSFGQGTKLEIK

One assay has as its target SARS-CoV-2 spike receptor binding domain (RBD), wild type (SARS-CoV-2, UniProt P0DTC2 319-539). The assay is described as follows: ELISA on coated RBD protein. (In general: ELISA stands for enzyme-linked immunosorbent assay.)
The term EC50 denotes the concentration giving half of the maximal effect. In turn, B1 gave an EC50 of 1.41 ng/mL.

Regarding B2, a half-maximal effect (EC50) was put at 1.25 ng/mL.

B3 came in with an EC50 of 2.01 ng/mL.

The molecule B4 had an EC50 of 2.28 ng/mL.

A further assay has the same target. Description: ELISA, RBD protein coated, mAb titrated.
Consider B5, for which it took 2.34 ng/mL to reach a half-maximal effect (EC50).

B6 came in with an EC50 of 2.02 ng/mL.

B7 had an EC50 of 2.28 ng/mL.

As for B8, the EC50 stood at 1.07 ng/mL.
